Laboratory results taken from the nanobody polyreactivity screen of Harvey et al. (2022).

Test: yeast display, Sf9 membrane polyspecificity reagent, FACS + sequencing; frameworks hold sequencing errors
How it was run: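 Nanobodies came from a synthetic yeast display library in Saccharomyces cerevisiae BJ5465, induced with galactose for 36–48 hours and stained for 1 hour at 4 °C with 10% biotinylated, detergent-solubilized Sf9 membrane reagent. Cells were enriched on streptavidin microbeads and then FACS-sorted, with low and high (top ~1%) gates set on anti-HA fluorescence for expression and streptavidin fluorescence for reagent binding. Each polyreactivity label reflects the gate a clone came from. Genes were amplified by colony PCR, sequenced by MiSeq 2 × 250 and filtered by CDR length.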

Row | Sequence | polyreactivity (PSR sort gate)
1 | QVQLVESGGGLVQAGGSLRLSCAASGLTFRVYAMGWYRQAPGKERELVAAISKRGGSTYYADSVKGRFTISRDNAKNTVYLQMNSLKPEDTAVYYCAAEPPPYEYVYWGQGTQVTVSS | high polyreactivity
2 | QVQLVESGGGLVQAGGSLRLSCAASGITFGRNTLGRYRQAPGKVRELVAAIDSGGNTYADSVKGRFTISRDNAKNTVYLQMNSLKPEDTAVYYCAVDGCEFSSYGYWGQGTQGTVSS | low polyreactivity
3 | QVQLVESGGGLVQAGGSLRLSCAASGSIFIYNAMGWYRQAPGKERELVAAISSSGGSTYYADSVKGRFTISRDNAKNTVYLQMNSLKPVDTAVYYCAARTYYVRGLGGRPGMDYWGQGTQVTVSS | low polyreactivity
4 | QVHLVESGGGLVQAGGSLRLSCAAAGSTSARYAMGWYRQPPGKERELVATITRSGTTKYADSVKGRFTISRDNAKNTVYLQMNSLKPEDTAVYYCNTDTYFPLYDYWGQGTQVTVSS | low polyreactivity
5 | QVQLVESGGGLVQAGGSLRLSCAASGITFRGYAMGWYRQAPGKERELVAAISSRGGSTYYADSVKGRFTISRDNAKNTVYLQMNSLKPEDTAVYYCNAVSGLYFTYTYDYWGQGTQVTVSS | high polyreactivity
6 | QVQLVESGGGLVQAGGSLRLSCAASGITFPFYAMGWYRQAPGKERELVAGITSGGSTYYADSVKGRFTISRDNAKNTVYLQMNSLKPEDTAVYYCAAPFYRQSLIEYDFWGQGTQVTVSS | high polyreactivity
7 | QVQLVESGGGLVQAGGSLRLSCAASGRIFGYTMGWYRQAPGKERELVAAISKSGGSTYYADSVKGRFTISRDNAKNTVYLQMNSLKPEDTAVYYCAAEYGYGKRAYDSWGQGTQVTVSS | high polyreactivity
8 | QVQLVESGGGLVQAGGSLRLSCAASGFTFRFYAMGWYRQAPGKERELVAAISRSGGDTYYADSVKGRFTISRDNAKNTVYLQMNSLKPEDTAVYYCNKATYRVAGRDFDYWGHGTQVTVSS | high polyreactivity
9 | QVQLVESGGGLVQAGGSLRLSCAASGSTFSRYSMGWYRQAPGKERELVAAITGRGGRTYYADSVKGRFTISRDNAKKTVYLQLNSLKPEDTAVYYCAAYYGPYRSLYYYWGQGNQVTVSS | high polyreactivity
10 | QVQLVESGGGLVHAGGSLRLSCAASGRIFVRYAMGWYRQAPGKERELVAAINWRGSSTYYADSVKGRFTISRDNAKNTVYLQMNSLKPEDTAVYYCNTAQRYRVYRYDYWGQGTQVTVSS | high polyreactivity
11 | QVQLVESGGGLVQAGGSLRLSCAASGRIFAKNAMGWYRQAPGKERELVAAINHSGGSTYYADSVKGRFTISRDNAKNTVYLQMNSLKPEDTAVYYCAALGSGVPRYYYWGQGTQVTVSS | high polyreactivity
12 | QVQLVESGGGLVQASGSLRLSCAASGFTFSQYDMGWNRQDHGKERELVAAISWNGGSTYYAESVKGRFTISRDNAKNTVYLQMNSLKPDDTAVYYCNRRWPFVRFYYWGQGTQVTVSS | high polyreactivity
13 | QVQLVESGGGLVQAGGSLRLSCAASGRTFRIYAMGWYRQAPGKERELVASISWSGGSTYYADSVKGRFTISRDNAKNTVYLQMNSLKPEDTAVYYCAADYPFIALYDYWGQGTQVTVSS | low polyreactivity
14 | QVQLVESGGGLVQAGGSLRLSCAASGSTIFSYAMGWYRQSPGKERELVAAITYRSSRTYYADSVKGRFTISRDNAKNTVYLQMNSLKPEDTAVYYCARGGTAYRYHMDYWGQGTQVTVSS | high polyreactivity
15 | PVQLQESGGGLVQAGGSLRLSCAESGNIFDADIMGWYRQAPGKERELVDCIADGGSTNYADSVKGSFTISRDNAKITVYLQMNSLKPEDTAVYYCAAIAYPDIPTCFDYDSDYFFRGQGTQVTVSS | low polyreactivity
16 | QVQLVESGGGLVQAGGSLRLSCAASGFIFYRYARGWYRQAPGKERELVAVISRGGNTYYADSVKGRFTISRDNAKNTVYLQMNSLKPEDTAVYYCNKRLRDSYRLYYYWGQGTQVTVSS | high polyreactivity
17 | QVQLVESGGGLVQAGGRLRLSCAASGHIFWGYAMGWSRQAPGKERELVAAITSGGNTNYADSVKGRFTISRDNAKNTVYLQMNSLKPEDTAVYYCAKRTRPWRDFDYWGQGTQVTVSS | low polyreactivity
18 | QVQLVESRGGLVQAGGSLRLSCAASGLNFSYYAMGWYRQAPGKERELVAAIDWNSGSTYYADSVKGRFTISRDNAKNTVYLQMNSLKPEDTAVYYCAAYGSFWYARFGYWGQGTQVTVSS | low polyreactivity
19 | QVQLVESGGGLVQAGGSLRLSCAASGFTFYNNAMGWYRQAPGKERELVAVITSNGGRTYYADSVKGRFTISRDNAKITVYLQMNSLKPEDTAVYYCAADYWGLGTQVTVSS | low polyreactivity
20 | QVHRVESGGGLVQAGGSLRLSCAASGSIFSYYDLGWYRQAPGNERELVAAISWDGGDRTYADSVKGRFTISRDNAKNNVYLQMNSLKPEDSAVYYCAKNTGSYRRVNLDYWGQGTQVTVSS | low polyreactivity
21 | QVQHVESGGGLVQAGGSLRLSCAASGSTFVGNAMGWYRQAPGKERELVADITSGGSTNYADSVKGRFTISRDNAKNTVYLQMNSLKPEDTAVYYCAAVYLWSQRREFWGQGTQVTVSS | low polyreactivity
22 | QVQLVESGGGLVQAGGSLRLSCAASGLILYNYAMGWYRQAPGKERELVAAISRSGGSTYYADSVKGRFTISRDNAKNTVYLQMNSLKPEDTAVYYCKVGYGRGSTIGGYDYWGQGTQVTVSS | high polyreactivity

Row | Sequence | polyreactivity (PSR sort gate)
23 | QVQLVESGGGLVQAGGSLRLSCAASGRIFLPYAMGWYGQAPGKERELFASISGSGGRTYYADSVKGRFTISRDHANNTVYLQMISQKPEDTAVYYCANRPVYAGYRFNYWGQGTQLTVSS | high polyreactivity
24 | QVQLVESGGGLVQAGGSLRLSCAASGRIFPVYAMVSYRQAPGKERELVAAISKRDGSTSYADSVKGRFTISRDNAKNTVYLQMHSLKPEDTAVYYCNVLGYGSSYDYWGQGTQVTVSS | low polyreactivity
25 | QVQLVESGGGLVQAGGSLRLSCAASGSIFNGYAMGWYRQAPGKERELVAAISRRGGSTYYADSVKGRFTISRVNAKNTVYLQMISLKPEDTAVYYCAADPRRPLSPQLSDYWGQGTQVTVSS | high polyreactivity
26 | QVQLVESGGGLVQAGGSLRLSCAASGSTFESYDMGWYRPAPGKERELVAAIDWSGGITYYADSVKGRFTISRDNAKNTVYLQMNSLKPEDTAVYYCNADWFVRYPKRVYWSEYDYWGHGTQVTVSS | low polyreactivity
27 | QVQLVESGGGLVHAGGSLRLSCAASGRIFRSYAMGWYRQAPGKERELVAAITSRGGSTYYADYVKGRFTISRDNAKNTVYLQMNILKTEDTAVYYCAADSFRLGVAAWTRYNYWGQGTQVTVSS | high polyreactivity
28 | QVQLVESVGGLVQAGGSLRLSCAASGSTYDHNAMGWSRHAPGKERELVAAISSDGSTNYADSVKGRFTISRDNAKNTVYLQMNSLKPEDTGVYYCNADGVYLGDYEYWGQGTQVTVSS | low polyreactivity
29 | QVQLEESGAGLVQAGGRLRLSCAASGITFILYAMGWYRHAPGKERELVAAISSGGRTKYADSEKGRFTISRDNAKNTVYLQMTSLKPEDTAVYYCNVSYLVYRWNFGWSMDYWGQGTQVTVSS | low polyreactivity
30 | QEQLQESGGGLEQPGGSLRLSCAASGSISGSSTMGWYRQAQGKERELVASIAVGANTNYADSAKGRFTISRDNAKNPVYLQMNSLKPEDTAVYYCAVDYYIYYFHYWGQATQVTVSS | high polyreactivity
31 | QVQLVESGGGLVQAGGSLRLSCAASGRTIWYYAMGWYRQAPGKERELVAAITYRGGSTYYADSVKGRFTISRDNVKNTVYLQMNSLKPEDTAVYFCAKENYYGGGFDYWGQGTQVTVSS | high polyreactivity
32 | QVQLEESGGGLVQAGGILRLSCAFYYGIGWYRQATGKERELVAAINLGGGSTYYADSVKGLFTISRDNAKNTVYLQMNSLKPEDTAVYYGAADVGSRTYYVKYDYWGQGTEVTVSS | low polyreactivity
33 | QVQLVESGGGLVQAGGSLRLSCAASGITFPGYAMGWYTQAPGKERELVAVIRKSGTSTYYADSVKGRFTISRDNAKNTVYLQMNSLKPEDTAVYYCAAGGPSTLDDYWGQGTQVTVSS | low polyreactivity
34 | QVQLVESGGGLVQAGGSLRLSCAASGRIFFYNVMGWYRQAPGKERELVAAITTIGGSTYYADSVKGRFTISRDNAKNTVYLQMNTLKPEDTAVYYCAAGWVTNSDGMDYWGQGTQVTVSS | low polyreactivity
35 | QVQLVESVGGLVQAGGSLRLSCAASGFTIGYNFMGWYRQAPGKERELVATISWNGARTYYADSVKGRFTISRDNAKNTVYLQMNSLKPEDTAVYYCAARRYYRGEYDYWGQGTQVTVSS | low polyreactivity
36 | QVQLVESGGGLVQAGGSLRLSCAASGSTIYRNTMGWYRQAPGKERELVAAISRSGSSTYYADSVKGRFTISRDNAKNTVFLQINSLKPEDTAVYYCAKEGLSYRYYYWGQGTQLTVSS | high polyreactivity
37 | QVQLVESGGGLVQAGGSLRLSCAASGRIVYSNAMVWYRQAPGKERELVASITRGSRTNYADSVKGRFTISRDNAKHSVYLPMNSLKPEDTAVYYCARRYLLKPGFGRFYYWGQGNQVTVSS | high polyreactivity
38 | QVHLVESGGGLVQAGGSLRLSCAASVRIFQIYAMGWYRQAPGKERELVATISSGTRTYYADSVKGRFTISRDNAKNTVYLQMISLKPEDTAVYYCAKTYATRHAYWAGTRYEDDYWGQGTQVTVSS | high polyreactivity
39 | QVQLVESGRGLVEAGGSLRLSCAASGFIFLPYAMVWYRQAPGKERELVAAITRGGRTYYADSVNRRFTISRDNAKNTVYLQMNSLKPEDTAVYDCAATTYLVWGYNYWGQGTQVTVSS | low polyreactivity
40 | QVQLVETGGGLVQAGGSLRLSCAASGSTFGGYAMGWYRQAPGKERELVATITGGGSTNYADSVKGRFTISRDNAKNTVYLQMNSLKPEDSAVYYCAKVRTGQSRSVGYDYWGQGTQVTVSS | low polyreactivity
41 | QVQLVESGGGLVQAGGSLRLSCAASGRIFQRNTMGWYRQAPGKERELVAAITWNGGSTYYADSVKGRFTISRDNAKNTVFLQMNSMKPEDTAVDYCATAYRYSVHKALGFNYWGQGTQVTVSS | high polyreactivity
42 | QVQLVESGGGLVQAGGSLRLSCAASGFNFRYNTMGWYRKAPRKERELVAAISVSGARTYYADSVKGRFTISRDNAKNTVYLQMNSLKPEDTAVFYCNRRYTFYSRYNNDYWGQGTQVTVSS | high polyreactivity
43 | QVQLVESGGGLVQAGGSHRLICAASGFNFYIYAMGWYRQAPGKERELVAAISWNGGSTYYADSVKGRFTISRDIAKNTVYLQMNSLKPEDTAVYYCAARHYYFYYHGYVKYDYWGQGTQVTVSS | high polyreactivity
